# Measurements: article PMC10933150
# Key:
# [1] = target: α7-mCherry (human α7 nicotinic acetylcholine receptor subunit with mCherry in the M3-M4 cytoplasmic loop) (human) (UniProt P36544)
# [2] = target: α7-mCherry (human α7 nicotinic acetylcholine receptor subunit with mCherry in the M3-M4 cytoplasmic loop) (human) (UniProt P36544); remark: listed apart in the source
# [3] = target: α7-mCherry (human α7 nicotinic acetylcholine receptor subunit with mCherry in the M3-M4 cytoplasmic loop) (human) (UniProt P36544); assay: FRET or BRET; acceptor photobleaching FRET (apFRET) by confocal microscopy in live HEK293 cells 2 days after transfection; eGFP donor, mCherry acceptor; region of interest in the ER; in DMEM at 37 °C and 5% CO2
# UniProt P36544, sequence (P36544 23-502): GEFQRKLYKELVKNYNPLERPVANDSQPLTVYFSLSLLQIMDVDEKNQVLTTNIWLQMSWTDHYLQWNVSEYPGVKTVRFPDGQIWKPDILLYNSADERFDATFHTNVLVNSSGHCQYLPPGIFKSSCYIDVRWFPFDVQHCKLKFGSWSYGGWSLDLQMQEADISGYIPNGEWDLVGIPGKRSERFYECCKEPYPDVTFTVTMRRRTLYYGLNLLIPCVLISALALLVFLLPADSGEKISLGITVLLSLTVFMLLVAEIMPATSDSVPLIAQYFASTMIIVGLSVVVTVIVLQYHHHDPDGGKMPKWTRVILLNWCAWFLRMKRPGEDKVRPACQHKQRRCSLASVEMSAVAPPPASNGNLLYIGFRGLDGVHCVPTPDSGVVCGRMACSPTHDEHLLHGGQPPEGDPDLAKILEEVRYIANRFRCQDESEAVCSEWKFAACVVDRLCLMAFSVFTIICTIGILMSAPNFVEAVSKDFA
Substance,"^125I-α-bungarotoxin binding to intact HEK293 cells (cell surface α7), decrease with eGFP-RIC3G88R against eGFP-RIC3WT, α7:RIC3 cDNA 1:1 or 5:1 [1] [%]","fold decrease in amplitude of maximal currents elicited by 1 mM acetylcholine in Xenopus oocytes (level of functional α7 nAChR); untagged α7 and RIC3G88R, tagged constructs gave the same pattern (data not shown) [2] [fold]",FRET efficiency (EF) [3] [%]
eGFP-RIC3G88R (RIC3 variant G88R with eGFP fused to the N-terminus) (from UniProt Q7Z5B4-5 29-368) (natural protein),50,1.5,10.7
eGFP-RIC3WT (wild-type RIC3 with eGFP fused to the N-terminus) (from UniProt Q7Z5B4-5 29-368) (natural protein),,,7.24
